# T1: HA-tagged human TGF-β type I receptor (TβRI-HA) (human, UniProt P36897 34-503)
# T1 sequence (looked up): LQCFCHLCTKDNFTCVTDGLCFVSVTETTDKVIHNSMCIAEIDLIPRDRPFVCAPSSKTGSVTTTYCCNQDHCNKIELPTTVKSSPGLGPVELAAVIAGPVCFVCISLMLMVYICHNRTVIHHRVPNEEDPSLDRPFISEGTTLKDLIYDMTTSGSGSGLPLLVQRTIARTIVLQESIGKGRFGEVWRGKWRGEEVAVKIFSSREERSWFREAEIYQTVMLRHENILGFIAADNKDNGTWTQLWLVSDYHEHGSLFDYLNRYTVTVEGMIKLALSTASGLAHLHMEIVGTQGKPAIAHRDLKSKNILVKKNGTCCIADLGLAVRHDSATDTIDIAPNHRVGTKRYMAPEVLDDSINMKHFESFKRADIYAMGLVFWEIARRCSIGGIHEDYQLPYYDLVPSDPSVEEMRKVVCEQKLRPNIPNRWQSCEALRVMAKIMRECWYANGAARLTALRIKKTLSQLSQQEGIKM
# B1: myc-tagged human TGF-β type I receptor (TβRI-myc) (receptor, UniProt P36897 34-503, looked up)
# chain: T1 sequence (looked up)
# Molecular target: T1, HA-tagged human TGF-β type I receptor …
# Assay: antibody-mediated immunofluorescence copatching
binder,measurement,value
B1,stoichiometry N,2

# From publication PMC2141740 (The Journal of Cell Biology, 1998)
